# Test results as given in patent US20190309069A1 (SHANGHAI HENGRUI PHARMACEUTICAL, published 2019).
# T1: human ICOS/Fc (Beijing Sino Biological Inc.) (human, UniProt Q9Y6W8 21-141, limits assumed)
# T1 construct: Bought reagent; not shown: Fc part
# T1 sequence (looked up): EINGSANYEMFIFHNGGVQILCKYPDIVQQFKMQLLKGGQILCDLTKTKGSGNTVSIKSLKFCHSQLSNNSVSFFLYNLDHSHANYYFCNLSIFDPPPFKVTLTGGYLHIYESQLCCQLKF
# T2: human CTLA4 (Beijing Sino Biological Inc.) (human, UniProt P16410 36-162, limits assumed)
# T2 construct: Bought reagent
# T2 sequence (looked up): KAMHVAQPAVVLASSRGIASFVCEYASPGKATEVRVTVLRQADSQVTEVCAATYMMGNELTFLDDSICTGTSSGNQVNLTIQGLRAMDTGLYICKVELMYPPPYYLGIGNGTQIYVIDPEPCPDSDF
# T3: mouse PD1-Fc (Beijing Sino Biological Inc.) (mouse, UniProt Q02242 25-167, limits assumed)
# T3 construct: Bought reagent; also called murine PD-1; not shown: Fc part
# T3 sequence (looked up): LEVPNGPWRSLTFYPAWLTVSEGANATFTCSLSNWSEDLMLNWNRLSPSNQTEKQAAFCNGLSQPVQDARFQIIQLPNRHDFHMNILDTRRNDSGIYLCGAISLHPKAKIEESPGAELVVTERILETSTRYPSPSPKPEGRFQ
# Columns and labels:
# [1] = molecular target: T4, recombinant PD-1 extracellular domain Fc fusion protein (PD-1 Fc) (human, biotin label (sites not given) in the ELISA binding assay; unlabelled when coated in the ligand blocking assay); experiment: ELISA, biotinylated PD-1 Fc captured on avidin
# T4 construct: also called human PD-1Fc; human PD-1
# Protocol: The PD-1 antibody blocks signaling pathway of PD-1 and its ligand by binding to PD-1 extracellular domain. In vitro ELISA assay is used to detect the binding property of the PD-1 antibody. Biotinylated PD-1 extracellular domain FC fusion protein (PD-1 FC) is coated onto 96-well plates by binding to neutralization avidin. Signal intensity after the addition of the antibody is used to determine the binding property of the antibody and PD-1.
# Neutralization avidin (binding to biotin) was diluted to 1 μl/ml with PBS buffer, pipetted into a 96-well plate with at 100 μl/well and standed for 16 h-20 h at 4° C. The 96-well plate was washed once with PBST (PH7.4 PBS, containing 0.05% tweeen20) after PBS buffer was removed, then the plate was incubated and blocked for 1 h at room temperature with addition of 120 μl/well PBST/1% milk. After removal of the blocking solution, the plate was washed with PBST buffer, followed by addition of 1 μg/ml biotin-labeled PD1-FC which was diluted by PBST/1% milk, and incubated for 1 h at room temperature. After removal of the blocking solution, the plate was washed with PBST buffer for 3 times, followed by addition of the test PD-1 antibody which was diluted to a suitable concentration by PBST/1% milk, and incubated for 1.5 h at room temperature. […] The absorbance value at 450 nm was read on NOVOStar microplate reader; the ELISA binding EC₅₀ value was calculated.
# [2] = molecular target: T1, human ICOS/Fc (Beijing Sino Biological …); experiment: selectivity ELISA, protein coated at 1 µg/ml
# Protocol: (§1) To detect the specific binding activity of PD-1 antibody to other proteins of the PD-1 family, human CTLA4 and human CD28 were used for binding assays. Meanwhile, the PD-1 of mice was also used for binding assays so as to determine the diversity of PD-1 antibody for different species other than human/monkey.
# (§2) Selectively binding proteins: human PD-1, human ICOS, human CTLA4, human CD28 and mouse PD-1, (Beijing Sino Biological Inc.), were respectively diluted to 1 μg/ml with PBS buffer, pipetted into a 96-well plate at 100 μl/well and standed for 16 h-20 h at 4° C. The 96-well plate was washed once with PBST (PH7.4 PBS, containing 0.05% tweeen20) after PBS buffer was removed, then the plate was incubated and blocked for 1 h at room temperature with 120 μl/well PBST/1% milk. After removal of the blocking solution, the plate was washed with PBST buffer for 3 times, followed by addition of the test PD-1 antibody, and incubated for 1.5 h at room temperature. After removal of the reaction system, the plate was washed for 3 times with PBST, followed by addition of 100 μl/well HRP-labeled anti-murine secondary antibody (The Jackson Laboratory) which was diluted by PBST/1% milk, and incubated for 1 h at room temperature. The plate was washed for 3 times with PBST, followed by addition of 100 μl/well TMB, and incubated for 5-10 min at room temperature. Then the reaction was terminated with addition of 100 μl/well 1M H₂SO₄. The absorbance value at 450 nm was read on the NOVOStar microplate reader.
# [3] = molecular target: T5, human CD28 (Beijing Sino Biological Inc.) (human, UniProt P10747 19-152); experiment: selectivity ELISA, protein coated at 1 µg/ml
# T5 construct: Bought reagent
# Protocol: as §1, §2
# [4] = molecular target: T2, human CTLA4 (Beijing Sino Biological …); experiment: selectivity ELISA, protein coated at 1 µg/ml
# Protocol: as §1, §2
# [5] = molecular target: T3, mouse PD1-Fc (Beijing Sino Biological …); experiment: selectivity ELISA, protein coated at 1 µg/ml
# Protocol: as §1, §2
# [6] = molecular target: T6, human PD1-FC (Beijing Sino Biological Inc.) (human, UniProt Q15116 25-167, limits assumed); experiment: selectivity ELISA, protein coated at 1 µg/ml
# T6 construct: not shown: Fc part
# Protocol: as §1, §2
# T4 sequence (chain, as listed by the source limits assumed): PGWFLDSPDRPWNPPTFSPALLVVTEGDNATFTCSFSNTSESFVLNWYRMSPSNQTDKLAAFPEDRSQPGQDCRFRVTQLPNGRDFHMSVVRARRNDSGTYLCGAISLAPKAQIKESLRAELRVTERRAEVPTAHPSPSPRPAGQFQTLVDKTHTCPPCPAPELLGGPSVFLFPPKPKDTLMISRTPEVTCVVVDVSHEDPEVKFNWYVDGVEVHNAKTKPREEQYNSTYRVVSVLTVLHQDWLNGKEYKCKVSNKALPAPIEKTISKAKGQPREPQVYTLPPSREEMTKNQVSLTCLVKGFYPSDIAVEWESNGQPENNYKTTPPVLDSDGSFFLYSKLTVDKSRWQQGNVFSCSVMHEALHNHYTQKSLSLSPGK
# T6 sequence (Q15116 25-167 limits assumed): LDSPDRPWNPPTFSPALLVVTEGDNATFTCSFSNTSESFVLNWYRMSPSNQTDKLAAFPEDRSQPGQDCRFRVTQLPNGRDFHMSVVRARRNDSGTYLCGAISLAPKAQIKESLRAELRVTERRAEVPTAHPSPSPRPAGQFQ
# T5 sequence (P10747 19-152 limits assumed): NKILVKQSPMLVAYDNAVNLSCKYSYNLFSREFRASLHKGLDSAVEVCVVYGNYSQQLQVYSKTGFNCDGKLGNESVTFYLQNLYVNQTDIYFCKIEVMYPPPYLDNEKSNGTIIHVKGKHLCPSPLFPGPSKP
binder,measurement,setting,value
"murine monoclonal antibody mAb005 (antibody, V domains shown, Murine monoclonal antibody from a hybridoma; also called PD-1 antibody mAb005) VH: EVMLVESGGGLVKPGGSLKLSCAASGFTFSSYMMSWVRQTPEKRLEWVATISGGGANTYYPDSVKGRFTISRDNAKNTLYLQMSSLRSEDTALYYCARQLYYFDYWGQGTTLTVSS VL: DIQMTQSPASQSASLGEGVTITCLASQTIGTWLTWYQQKPGKSPQLLIYTATSLADGVPSRFSGSGSGTKFSFKISSLQAEDFVTYYCQQVYSIPWTFGGGTKLEIK",EC50,[1],0.25 nM
same,absorbance at 450 nm,[2],0.15
same,absorbance at 450 nm,[3],0.12
same,absorbance at 450 nm,[4],0.17
same,absorbance at 450 nm,[5],0.07
same,absorbance at 450 nm,[6],2.64
